What was measured:
[1] = target: polypeptide Hex3, polypeptide of subunit (B) of the hexaprenyl diphosphate synthetase of Micrococcus luteus B-P 26 (Micrococcus luteus B-P 26)
[2] = target: polypeptide GERC3, subunit of the heptaprenyl diphosphate synthetase of Bacillus subtilis (ATCC 6633) (Bacillus subtilis (ATCC 6633)) (UniProt P31114)
[3] = target: polypeptide Hep2, subunit of the thermoresistant heptaprenyl diphosphate synthetase of Bacillus stearothermophilus (ATCC 10149) (Bacillus stearothermophilus (ATCC 10149))
[4] = target: Hex2, protein encoded by hex2 of Micrococcus luteus B-P 26 (Micrococcus luteus B-P 26)

Substance	Activity (dpm), prenyl diphosphate (HexPP) synthetase activity of mixed crude homogenates [1] [dpm]	Activity (dpm), HepPS activity of proteins mixed in equal amounts [2] [dpm]	Activity (dpm), HepPS activity of proteins mixed in equal amounts [3] [dpm]	Activity (dpm), prenyl diphosphate (HexPP) synthetase activity of mixed crude homogenates [4] [dpm]
Hex2, protein encoded by hex2 of Micrococcus luteus B-P 26	0	–	–	–
polypeptide GERC1, subunit of the heptaprenyl diphosphate synthetase of Bacillus subtilis (ATCC 6633) (enzyme)	–	136	7920	–
polypeptide Hep1, subunit of the heptaprenyl diphosphate synthetase of Bacillus stearothermophilus (ATCC 10149) (from UniProt P55784) (enzyme)	–	–	0	–
polypeptide Hex1, polypeptide of subunit (A) of the hexaprenyl diphosphate synthetase of Micrococcus luteus B-P 26 (enzyme)	2920	–	–	0
